According to patent publication US20240376151A1, “STAPLED PEPTIDES AND METHODS THEREOF” (FOG PHARMACEUTICALS, INC., priority 2022, published 2024):
Numbered stars: 1 amine (or outer) side, 2 acyl side, 3 side chain; on linkers, the order of the positions; unused ones are H or OH. Bridge positions count the residues as written; N and C are the ends. Ends that are not written are not given here. Phenylene(1,4-NHCOCH2)2 = O=C(C[*:1])Nc1ccc(NC(=O)C[*:2])cc1

How the values were obtained:
CHIP = molecular target: T1, CHIP (Homo sapiens, UniProt Q9UNE7); assay: Naive Library Presenter Screening (phage, NGS), CHIP; format: binding; conditions: CHIP clusters (C83, C84); for interaction data, BLANK: Blank = Media only; for interaction data at Target Concentration 10: target concentration 10 nM; for interaction data at Target Concentration 30: target concentration 30 nM; for interaction data at Target Concentration 100: target concentration 100 nM; for interaction data at Target Concentration 300: target concentration 300 nM; for interaction data at Target Concentration 1000: target concentration 1000 nM
T1 construct: N-term truncated CHIP (also known as STUB1, Uniprot ID: Q9UNE7, residues 23-303); made in house; host or cells: E. coli BL21 CodonPlus
T1 sequence (Q9UNE7 23-303): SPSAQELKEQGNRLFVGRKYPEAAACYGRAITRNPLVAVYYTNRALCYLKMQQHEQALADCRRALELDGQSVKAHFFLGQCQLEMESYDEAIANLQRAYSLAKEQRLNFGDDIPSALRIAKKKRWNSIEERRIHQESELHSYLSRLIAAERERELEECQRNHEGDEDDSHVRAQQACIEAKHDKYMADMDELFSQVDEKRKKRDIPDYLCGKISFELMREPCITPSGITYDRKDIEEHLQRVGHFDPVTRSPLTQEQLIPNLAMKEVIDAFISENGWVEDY
Experimental: To conduct phage library screening, previously described procedures were utilized in accordance with the present disclosure.
Next-generation sequencing was performed as described in accordance with the present disclosure.
Hit ID and Clustering is performed according to a described procedure in accordance with the present disclosure.

RNF31 UBA domain = molecular target: T2, RNF31 UBA domain (Homo sapiens, UniProt Q96EP0); assay: Phage Library Screening with NGS, RNF31 UBA domain; format: binding; conditions: for phage screen NGS read-out at Target Concentration 10 / phage screen NGS read-out at Target Concentration 30 / phage screen NGS read-out at Target Concentration 100 / phage screen NGS read-out at Target Concentration 300: no competitor; for Phage library screen NGS readout, BLANK: cluster C46
T2 construct: RNF31 UBA domain protein (residues 480-639) with N-terminal Thioredoxin-TEV-6×his-yBBr-3C tags; Thioredoxin (N, cleaved yes); made in house; host or cells: E. coli BL21 (DE3) pLysS
T2 sequence (Q96EP0 480-639): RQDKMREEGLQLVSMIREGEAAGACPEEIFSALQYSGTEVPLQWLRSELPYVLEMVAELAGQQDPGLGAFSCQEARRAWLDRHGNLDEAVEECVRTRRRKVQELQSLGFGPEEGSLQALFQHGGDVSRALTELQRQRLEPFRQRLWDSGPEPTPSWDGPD

Sequence | interaction data, BLANK (CHIP; first column) | interaction data, BLANK (CHIP; second column) | interaction data at Target Concentration 10 (CHIP) | interaction data at Target Concentration 30 (CHIP) | interaction data at Target Concentration 100 (CHIP) | interaction data at Target Concentration 300 (CHIP) | interaction data at Target Concentration 1000 (CHIP; first column) | interaction data at Target Concentration 1000 (CHIP; second column) | other results
DPAELFCTEAADICMVD (linker 7-14 via Phenylene(1,4-NHCOCH2)2 (inferred)) | 0 | 0 | 0 | 0 | 0 | 18 | 13 | 22 | 
DPAEYACYHAASICNVD (linker 7-14 via Phenylene(1,4-NHCOCH2)2 (inferred)) | 0 | 0 | 0 | 0 | 54 | 61 | 31 | 91 | 
DPAFDACQFAAAMCDHQ (linker 7-14 via Phenylene(1,4-NHCOCH2)2 (inferred)) | 0 | 0 | 0 | 30 | 23 | 39 | 80 | 248 | 
DPAFEQCQFAAAMCLHH (linker 7-14 via Phenylene(1,4-NHCOCH2)2 (inferred)) | 0 | 0 | 0 | 6 | 1 | 17 | 42 | 21 | 
DPAFERCQLAAAFCYDS (linker 7-14 via Phenylene(1,4-NHCOCH2)2 (inferred)) | 0 | 0 | 0 | 0 | 2 | 15 | 60 | 47 | 
DPAFEVCQFAAATCSSN (linker 7-14 via Phenylene(1,4-NHCOCH2)2 (inferred)) | 0 | 0 | 0 | 0 | 8 | 10 | 6 | 30 | 
DPAFEYCQWAAATCQMD (linker 7-14 via Phenylene(1,4-NHCOCH2)2 (inferred)) | 0 | 0 | 0 | 12 | 0 | 43 | 46 | 90 | 
DPAFFECVRAASICMVD (linker 7-14 via Phenylene(1,4-NHCOCH2)2 (inferred)) | 0 | 0 | 0 | 0 | 0 | 51 | 41 | 54 | 
DPAFTRCQFAAAVCNFT (linker 7-14 via Phenylene(1,4-NHCOCH2)2 (inferred)) | 0 | 0 | 0 | 3 | 0 | 6 | 19 | 28 | 
DPAFVRCQFAAASCHTI (linker 7-14 via Phenylene(1,4-NHCOCH2)2 (inferred)) | 0 | 0 | 0 | 0 | 0 | 22 | 27 | 19 | 
DPATLVCTMAANNCIYR |  |  |  |  |  |  |  |  | phage screen NGS read-out at Target Concentration 10 (RNF31 UBA domain): 0; phage screen NGS read-out at Target Concentration 30 (RNF31 UBA domain): 0; phage screen NGS read-out at Target Concentration 100 (RNF31 UBA domain): 0; phage screen NGS read-out at Target Concentration 300 (RNF31 UBA domain): 1
DPATQHCLAAAMWCHLI |  |  |  |  |  |  |  |  | phage screen NGS read-out at Target Concentration 10 (RNF31 UBA domain): 0; phage screen NGS read-out at Target Concentration 30 (RNF31 UBA domain): 0; phage screen NGS read-out at Target Concentration 100 (RNF31 UBA domain): 1; phage screen NGS read-out at Target Concentration 300 (RNF31 UBA domain): 3
DPAVQSCLSAAVYCAFR |  |  |  |  |  |  |  |  | Phage library screen NGS readout, Target Concentration 10 (RNF31 UBA domain; RNF31 UBA domain cluster C46, target concentration 10): 2; Phage library screen NGS readout, Target Concentration 30 (RNF31 UBA domain; RNF31 UBA domain cluster C46, target concentration 30): 9; Phage library screen NGS readout, Target Concentration 100 (RNF31 UBA domain; RNF31 UBA domain cluster C46, target concentration 100): 68; Phage library screen NGS readout, Target Concentration 300 (RNF31 UBA domain; RNF31 UBA domain cluster C46, target concentration 300): 106; Phage library screen NGS readout, Target Concentration 1000 (RNF31 UBA domain; RNF31 UBA domain cluster C46, target concentration 1000, first column): 117; Phage library screen NGS readout, Target Concentration 1000 (RNF31 UBA domain; RNF31 UBA domain cluster C46, target concentration 1000, second column): 118; Phage library screen NGS readout, BLANK (RNF31 UBA domain; column 1 of 5): 0; Phage library screen NGS readout, BLANK (RNF31 UBA domain; column 2 of 5): 1; Phage library screen NGS readout, BLANK (RNF31 UBA domain; column 3 of 5): 2; Phage library screen NGS readout, BLANK (RNF31 UBA domain; column 4 of 5): 0; Phage library screen NGS readout, BLANK (RNF31 UBA domain; column 5 of 5): 1
DPAYEHCVAAAYWCYLL |  |  |  |  |  |  |  |  | phage screen NGS read-out at Target Concentration 10 (RNF31 UBA domain): 1; phage screen NGS read-out at Target Concentration 30 (RNF31 UBA domain): 0; phage screen NGS read-out at Target Concentration 100 (RNF31 UBA domain): 11; phage screen NGS read-out at Target Concentration 300 (RNF31 UBA domain): 30

Further lines, with some results ahead:

interaction data, BLANK (CHIP; first column) | interaction data, BLANK (CHIP; second column) | interaction data at Target Concentration 10 (CHIP) | interaction data at Target Concentration 30 (CHIP) | interaction data at Target Concentration 100 (CHIP) | interaction data at Target Concentration 300 (CHIP) | interaction data at Target Concentration 1000 (CHIP; first column) | interaction data at Target Concentration 1000 (CHIP; second column) | Sequence | other results
0 | 0 | 0 | 0 | 1 | 17 | 7 | 32 | DPAETFCWDAADICMVD (linker 7-14 via Phenylene(1,4-NHCOCH2)2 (inferred)) | 
0 | 0 | 0 | 0 | 4 | 13 | 31 | 76 | DPAFDRCQWAAALCMMN (linker 7-14 via Phenylene(1,4-NHCOCH2)2 (inferred)) | 
0 | 0 | 0 | 0 | 0 | 3 | 8 | 5 | DPAFTACQFAAAMCDSS (linker 7-14 via Phenylene(1,4-NHCOCH2)2 (inferred)) | 
0 | 0 | 0 | 0 | 19 | 16 | 70 | 44 | DPAFWQCQFAAATCAHY (linker 7-14 via Phenylene(1,4-NHCOCH2)2 (inferred)) | 
